Assay [1] deals with human FGFR2c expressed on CHOK1 cells (human) (UniProt P21802). The assay is described as follows: flow cytometry on CHOK1 cells expressing hFGFR2c, detection with APC anti-human IgG Fc. In general terms: Flow cytometry measures light scatter and fluorescence of single cells or particles in a stream.
Assay [2] concerns the target hFGFR2b-Fc (Kactus, Catalog #FGR-HM2BB) (human) (UniProt P21802). The assay is described as follows: epitope binning ELISA: competing Ab FPA144 in solution with biotin-hFGFR2b-Fc; competitor (column, coated) HC18.
For assay [3] the target is unchanged. As to the kind of experiment: competition ELISA: inhibition of biotin-FGF10 binding to coated hFGFR2b-Fc.
Assay [4] shares this target. The assay is described as follows: competition ELISA: inhibition of FGF7-his binding to coated hFGFR2b-Fc. On the technique in general: An ELISA detects its analyte on a solid surface through an enzyme-linked reagent.
Assay [5] addresses human FGFR2b expressed on cells (hFGFR2b-expressing CHOK1 cells; Ba/F3 cells expressing full-length human FGFR2b) (human) (UniProt P21802). As to the kind of experiment: flow cytometry on CHOK1 cells expressing hFGFR2b, detection with APC anti-human IgG Fc.
Assay [6] deals with hFGFR2b-Fc (Kactus, Catalog #FGR-HM2BB) (human) (UniProt P21802). The assay is described as follows: epitope binning ELISA: competing Ab FPA144 in solution with biotin-hFGFR2b-Fc; competitor (column, coated) FPA144.
Chain of hFGFR2b-Fc (Kactus, Catalog #FGR-HM2BB) (human) (P21802 other isoform, or with tags, fused parts or gaps): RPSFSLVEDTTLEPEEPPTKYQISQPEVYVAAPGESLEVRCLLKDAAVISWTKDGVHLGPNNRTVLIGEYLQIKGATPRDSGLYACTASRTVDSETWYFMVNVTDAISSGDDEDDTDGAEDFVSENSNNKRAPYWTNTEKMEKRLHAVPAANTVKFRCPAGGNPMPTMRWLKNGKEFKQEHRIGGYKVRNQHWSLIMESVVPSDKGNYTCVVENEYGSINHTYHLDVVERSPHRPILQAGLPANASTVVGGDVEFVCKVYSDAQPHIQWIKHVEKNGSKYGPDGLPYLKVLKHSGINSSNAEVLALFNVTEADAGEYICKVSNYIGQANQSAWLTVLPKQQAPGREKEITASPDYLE

Chain of human FGFR2b expressed on cells (hFGFR2b-expressing CHOK1 cells; Ba/F3 cells expressing full-length human FGFR2b) (human) (P21802 other isoform, or with tags, fused parts or gaps): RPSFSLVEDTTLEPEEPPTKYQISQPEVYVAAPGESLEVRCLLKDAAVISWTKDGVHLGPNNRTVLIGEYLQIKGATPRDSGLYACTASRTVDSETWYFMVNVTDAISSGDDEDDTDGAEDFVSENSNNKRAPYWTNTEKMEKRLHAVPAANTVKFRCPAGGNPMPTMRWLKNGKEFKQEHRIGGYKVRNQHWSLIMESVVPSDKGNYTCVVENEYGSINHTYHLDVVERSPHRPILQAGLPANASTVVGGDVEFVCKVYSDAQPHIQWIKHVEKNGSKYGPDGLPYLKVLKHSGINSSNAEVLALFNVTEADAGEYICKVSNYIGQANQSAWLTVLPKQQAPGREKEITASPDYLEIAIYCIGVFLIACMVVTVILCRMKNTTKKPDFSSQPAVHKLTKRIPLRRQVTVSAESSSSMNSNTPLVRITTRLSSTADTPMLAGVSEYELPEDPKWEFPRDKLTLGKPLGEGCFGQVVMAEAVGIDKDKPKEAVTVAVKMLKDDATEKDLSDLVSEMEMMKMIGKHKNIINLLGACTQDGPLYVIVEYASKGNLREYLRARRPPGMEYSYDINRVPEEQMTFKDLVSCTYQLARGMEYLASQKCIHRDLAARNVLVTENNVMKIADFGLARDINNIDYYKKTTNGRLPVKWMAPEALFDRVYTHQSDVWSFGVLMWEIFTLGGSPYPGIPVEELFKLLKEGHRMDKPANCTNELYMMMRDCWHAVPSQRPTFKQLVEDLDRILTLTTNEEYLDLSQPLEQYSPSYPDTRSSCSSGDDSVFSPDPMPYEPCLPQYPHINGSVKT
Chain of human FGFR2c expressed on CHOK1 cells (human) (P21802 22-821): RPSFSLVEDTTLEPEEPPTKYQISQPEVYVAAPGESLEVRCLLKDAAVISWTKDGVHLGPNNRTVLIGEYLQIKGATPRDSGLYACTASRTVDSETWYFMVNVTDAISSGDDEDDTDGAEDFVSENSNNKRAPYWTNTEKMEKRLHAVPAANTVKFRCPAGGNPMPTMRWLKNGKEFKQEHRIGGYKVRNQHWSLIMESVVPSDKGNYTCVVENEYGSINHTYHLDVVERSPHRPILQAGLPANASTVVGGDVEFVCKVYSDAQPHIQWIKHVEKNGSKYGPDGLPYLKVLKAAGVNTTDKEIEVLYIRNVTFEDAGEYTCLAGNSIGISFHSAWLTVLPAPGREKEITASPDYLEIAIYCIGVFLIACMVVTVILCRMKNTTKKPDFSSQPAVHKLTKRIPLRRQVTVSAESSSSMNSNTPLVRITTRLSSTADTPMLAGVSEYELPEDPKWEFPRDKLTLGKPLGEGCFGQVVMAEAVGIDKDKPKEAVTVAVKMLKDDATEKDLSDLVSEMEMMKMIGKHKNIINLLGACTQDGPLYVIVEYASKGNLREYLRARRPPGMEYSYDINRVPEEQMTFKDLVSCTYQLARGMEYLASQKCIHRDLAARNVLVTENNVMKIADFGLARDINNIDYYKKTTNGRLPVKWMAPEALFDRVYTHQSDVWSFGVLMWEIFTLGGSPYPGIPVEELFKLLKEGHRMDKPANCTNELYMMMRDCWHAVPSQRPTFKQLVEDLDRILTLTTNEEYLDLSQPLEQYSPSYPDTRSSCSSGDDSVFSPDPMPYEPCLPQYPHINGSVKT

B1: Aprutumab (antibody, INN chains, looked up, V domains shown)
VH: EVQLLESGGGLVQPGGSLRLSCAASGFTFSSYAMSWVRQAPGKGLEWVSAISGSGTSTYYADSVKGRFTISRDNSKNTLYLQMNSLRAEDTAVYYCARVRYNWNHGDWFDPWGQGTLVTVSS
VL: QSVLTQPPSASGTPGQRVTISCSGSSSNIGNNYVSWYQQLPGTAPKLLIYENYNRPAGVPDRFSGSKSGTSASLAISGLRSEDEADYYCSSWDDSLNYWVFGGGTKLTVL
Regarding B1, the EC50 (read off the curve) – broadly, the midpoint of the concentration-response curve – in assay [1] came to 1 nM.

B2: FPA144 (antibody, INN chains, looked up, V domains shown)
VH: QVQLVQSGAEVKKPGSSVKVSCKASGYIFTTYNVHWVRQAPGQGLEWIGSIYPDNGDTSYNQNFKGRATITADKSTSTAYMELSSLRSEDTAVYYCARGDFAYWGQGTLVTVSS
VL: DIQMTQSPSSLSASVGDRVTITCKASQGVSNDVAWYQQKPGKAPKLLIYSASYRYTGVPSRFSGSGSGTDFTFTISSLQPEDIATYYCQQHSTTPYTFGQGTKLEIK
As for B2, the percent competition (epitope binning; value not given) in assay [2] and in assay [6] was 98% throughout. In addition, the half-maximal inhibitory concentration (IC50) (in general, the concentration that gives 50% inhibition) in assay [3] amounted to 6.65 nM; in assay [4] it was 2.4 nM. In addition, the Inhibition (%) in assay [3] and in assay [4] was 100% each time. Moreover, the results for the ODmin in assay [3] and in assay [4] were 0.496 OD and 0.172 OD, respectively. Moreover, the EC50 (read off the curve) in assay [5] worked out at 0.2 nM.
